Laboratory results from paper doi:10.1101/553511 (bioRxiv, 2019).

B1: KAP1 RBCC domain (RBCC, 23-418) (domain or fragment)
chain: GEGSAGGEKRSTAPSAAASASASAAASSPAGGGAEALELLEHCGVCRERLRPEREPRLLPCLHSACSACLGPAAPAAANSSGDGGAAGDGTVVDCPVCKQQCFSKDIVENYFMRDSGSKAATDAQDANQCCTSCEDNAPATSYCVECSEPLCETCVEAHQRVKYTKDHTVRSTGPAKSRDGERTVYCNVHKHEPLVLFCESCDTLTCRDCQLNAHKDHQYQFLEDAVRNQRKLLASLVKRLGDKHATLQKSTKEVRSSIRQVSDVQKRVQVDVKMAILQIMKELNKRGRVLVNDAQKVTEGQQERLERQHWTMTKIQKHQEHILRFASWALESDNNTALLLSKKLIYFQLHRALKMIVDPVEPHGEMKFQWDLNAWTKSAEAFGKIVAERPGTNST
B2: KAP1 full length protein (KAP1 FL, 1-835) (natural protein)
chain: MAASAAAASAAAASAASGSPGPGEGSAGGEKRSTAPSAAASASASAAASSPAGGGAEALELLEHCGVCRERLRPEREPRLLPCLHSACSACLGPAAPAAANSSGDGGAAGDGTVVDCPVCKQQCFSKDIVENYFMRDSGSKAATDAQDANQCCTSCEDNAPATSYCVECSEPLCETCVEAHQRVKYTKDHTVRSTGPAKSRDGERTVYCNVHKHEPLVLFCESCDTLTCRDCQLNAHKDHQYQFLEDAVRNQRKLLASLVKRLGDKHATLQKSTKEVRSSIRQVSDVQKRVQVDVKMAILQIMKELNKRGRVLVNDAQKVTEGQQERLERQHWTMTKIQKHQEHILRFASWALESDNNTALLLSKKLIYFQLHRALKMIVDPVEPHGEMKFQWDLNAWTKSAEAFGKIVAERPGTNSTGPAPMAPPRAPGPLSKQGSGSSQPMEVQEGYGFGSGDDPYSSAEPHVSGVKRSRSGEGEVSGLMRKVPRVSLERLDLDLTADSQPPVFKVFPGSTTEDYNLIVIERGAAAAATGQPGTAPAGTPGAPPLAGMAIVKEEETEAAIGAPPTATEGPETKPVLMALAEGPGAEGPRLASPSGSTSSGLEVVAPEGTSAPGGGPGTLDDSATICRVCQKPGDLVMCNQCEFCFHLDCHLPALQDVPGEEWSCSLCHVLPDLKEEDGSLSLDGADSTGVVAKLSPANQRKCERVLLALFCHEPCRPLHQLATDSTFSLDQPGGTLDLTLIRARLQEKLSPPYSSPQEFAQDVGRMFKQFNKLTEDKADVQSIIGLQRFFETRMNEAFGDTKFSAVLVEPPPMSLPGAGLSSQELSGGPGDGP
B3: ΔKAP1 (23-812) (domain or fragment)
chain: GEGSAGGEKRSTAPSAAASASASAAASSPAGGGAEALELLEHCGVCRERLRPEREPRLLPCLHSACSACLGPAAPAAANSSGDGGAAGDGTVVDCPVCKQQCFSKDIVENYFMRDSGSKAATDAQDANQCCTSCEDNAPATSYCVECSEPLCETCVEAHQRVKYTKDHTVRSTGPAKSRDGERTVYCNVHKHEPLVLFCESCDTLTCRDCQLNAHKDHQYQFLEDAVRNQRKLLASLVKRLGDKHATLQKSTKEVRSSIRQVSDVQKRVQVDVKMAILQIMKELNKRGRVLVNDAQKVTEGQQERLERQHWTMTKIQKHQEHILRFASWALESDNNTALLLSKKLIYFQLHRALKMIVDPVEPHGEMKFQWDLNAWTKSAEAFGKIVAERPGTNSTGPAPMAPPRAPGPLSKQGSGSSQPMEVQEGYGFGSGDDPYSSAEPHVSGVKRSRSGEGEVSGLMRKVPRVSLERLDLDLTADSQPPVFKVFPGSTTEDYNLIVIERGAAAAATGQPGTAPAGTPGAPPLAGMAIVKEEETEAAIGAPPTATEGPETKPVLMALAEGPGAEGPRLASPSGSTSSGLEVVAPEGTSAPGGGPGTLDDSATICRVCQKPGDLVMCNQCEFCFHLDCHLPALQDVPGEEWSCSLCHVLPDLKEEDGSLSLDGADSTGVVAKLSPANQRKCERVLLALFCHEPCRPLHQLATDSTFSLDQPGGTLDLTLIRARLQEKLSPPYSSPQEFAQDVGRMFKQFNKLTEDKADVQSIIGLQRFFETRMNEAFGDTKFSAVLVEP

Biological target: the molecule itself
Assay: SEC-MALS

Protein | stoichiometry N
B1 | 2
B2 | 2
B3 | 2
